We go through three molecules from patent publication US20260028407A1 (FIBROGEN, published 2026).

For experiment [1], the target named is T1, human Galectin-9 (Gal9) (human, UniProt O00182-2 1-323, limits assumed).
T1 construct: also called human Gal9
The experiment in a line: SPR.

In experiment [2] the target is T1, human Galectin-9 (Gal9). The experiment in a line: SPR. The source holds these as a separate data set.
The target of experiment [3] is T2, Gal9 as added in the T-cell apoptosis and TIM-3 dimerization assays (species not stated). Briefly: cell-based or functional assay.
T2 sequence (O00182 whole entry): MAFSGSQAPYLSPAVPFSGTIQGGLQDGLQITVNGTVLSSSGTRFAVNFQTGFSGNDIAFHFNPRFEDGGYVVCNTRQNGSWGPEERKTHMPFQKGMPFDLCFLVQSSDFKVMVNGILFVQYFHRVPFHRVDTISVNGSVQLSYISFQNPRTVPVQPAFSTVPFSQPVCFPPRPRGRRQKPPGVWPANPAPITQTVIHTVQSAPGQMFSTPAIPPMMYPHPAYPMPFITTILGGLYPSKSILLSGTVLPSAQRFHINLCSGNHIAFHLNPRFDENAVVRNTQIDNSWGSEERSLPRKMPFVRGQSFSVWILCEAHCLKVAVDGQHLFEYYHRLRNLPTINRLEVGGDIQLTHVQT
Experiment [4] concerns the target T1, human Galectin-9 (Gal9). The experiment in a line: solution equilibrium assay (SEA), human Gal9.
Experiment [5] deals with T3, mouse Galectin-9 (Gal9) (mouse, UniProt O08573-2 2-322, limits assumed).
T3 construct: also called mouse Gal9
T3 sequence (O08573 other isoform, or with tags, fused parts or gaps limits assumed): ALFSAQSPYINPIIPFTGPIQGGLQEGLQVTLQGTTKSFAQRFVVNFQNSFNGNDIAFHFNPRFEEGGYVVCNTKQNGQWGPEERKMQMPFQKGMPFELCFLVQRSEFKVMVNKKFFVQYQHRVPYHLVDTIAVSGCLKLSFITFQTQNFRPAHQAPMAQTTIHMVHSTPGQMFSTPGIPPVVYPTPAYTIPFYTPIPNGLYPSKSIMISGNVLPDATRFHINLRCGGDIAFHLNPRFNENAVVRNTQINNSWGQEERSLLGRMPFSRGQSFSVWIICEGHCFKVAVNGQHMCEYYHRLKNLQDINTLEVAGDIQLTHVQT
Briefly: solution equilibrium assay (SEA), mouse Gal9.

The target of experiment [6] is T1, human Galectin-9 (Gal9). The experiment in a line: solution equilibrium assay (SEA), human Gal9. The source holds these as a separate data set.
The target of experiment [7] is T3, mouse Galectin-9 (Gal9). The experiment in a line: solution equilibrium assay (SEA), mouse Gal9. This is another data set of the same source.
Experiment [8] addresses T2, Gal9 as added in the T-cell apoptosis …. Briefly: cell-based or functional assay. This is another data set of the same source.
Experiment [9] shares this target. The experiment in a line: cell-based or functional assay. This is another data set of the same source.
The target is the same in experiment [10]. Briefly: cell-based or functional assay. This is another data set of the same source.

Where two headings read alike, the source gives them in different places.

T1 sequence (O00182 other isoform, or with tags, fused parts or gaps limits assumed): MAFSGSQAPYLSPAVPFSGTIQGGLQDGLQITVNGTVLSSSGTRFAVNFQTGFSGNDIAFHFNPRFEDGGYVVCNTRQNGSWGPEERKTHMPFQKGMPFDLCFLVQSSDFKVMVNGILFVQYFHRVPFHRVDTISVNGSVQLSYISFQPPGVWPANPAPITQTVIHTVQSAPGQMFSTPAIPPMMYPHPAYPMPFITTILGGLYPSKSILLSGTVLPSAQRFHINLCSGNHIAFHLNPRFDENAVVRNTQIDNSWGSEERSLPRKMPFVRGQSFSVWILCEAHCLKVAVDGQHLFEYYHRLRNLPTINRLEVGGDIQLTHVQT

B1: antibody A (Ab A), HFB9-2hz11, parental humanized anti-Gal9 antibody (antibody, V domains shown)
VH: QVQLVQSGAEVKKPGASVKVSCKASGYTFTEYTIHWVRQAPGQGLEWMGWFYPGSGSTEYAQKFQGRVTMTADTSISTAYMELSRLRSDDTAVYFCERHGGYDGFDYWGQGTTVTVSS
VL: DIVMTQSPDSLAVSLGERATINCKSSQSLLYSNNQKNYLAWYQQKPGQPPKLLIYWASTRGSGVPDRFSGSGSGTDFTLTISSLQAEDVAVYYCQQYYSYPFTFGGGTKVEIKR
notes: also called antibody Ab A
A word on the Kd: it is the free concentration of one partner at which half of the binding sites on the other are occupied at equilibrium, for simple one-to-one binding. A higher Kd goes with weaker binding. For orientation: koff means the rate constant with which the complex falls apart. One may read the kon as the second-order rate constant of association. Turning to B1, the dissociation constant (Kd) in the experiment with human Galectin-9 (Gal9) [1] stood at 7.18 nM; in the experiment with human Galectin-9 (Gal9) [2], 4.9 nM; with human Galectin-9 (Gal9) [4], 3.1 nM; with mouse Galectin-9 (Gal9) [5], 49 nM; with human Galectin-9 (Gal9) [6] it was 3.1 nM; with mouse Galectin-9 (Gal9) [7], 49 nM. The figures for the dissociation rate constant (koff) with human Galectin-9 (Gal9) [1] and with human Galectin-9 (Gal9) [2] were 0.0099 s⁻¹ and 0.00077 s⁻¹, respectively. Further, the kon with human Galectin-9 (Gal9) [1] stood at 1.4e+06 M⁻¹ s⁻¹; with human Galectin-9 (Gal9) [2], 160000 M⁻¹ s⁻¹. Moreover, in experiment [3], the “IC50 of reducing Gal9-induced CD4+ T cell apoptosis” value stood at 18.7 nM.

B2: antibody 003 (Ab 003), affinity matured anti-Gal9 antibody (antibody, V domains shown)
VH: QVQLVQSGAEVKKPGASVKVSCKASGYPFSSYTIHWVRQAPGQGLEWMGWFYPGSGSTEYAQKFQGRVTMTADTSISTAYMELSRLRSDDTAVYFCEVHGGYDGFDYWGQGTTVTVSS
VL: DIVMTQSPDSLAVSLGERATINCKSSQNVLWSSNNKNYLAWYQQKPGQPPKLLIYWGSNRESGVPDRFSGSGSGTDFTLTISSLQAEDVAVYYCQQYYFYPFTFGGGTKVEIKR
notes: Full HC/LC entries; they may hold a signal peptide
With B2, the “IC50 (read off the curve), inhibition of Gal9-induced TIM-3 dimerization” value in [8] is about 20 nM.

B3: antibody 001 (Ab 001), affinity matured anti-Gal9 antibody (antibody, V domains shown)
VH: QVQLVQSGAEVKKPGASVKVSCKASGYEFTEYTIHWVRQAPGQGLEWMGWFYPGSGSTWYAQKFQGRVTMTADTSISTAYMELSRLRSDDTAVYFCERHGGYDGFDYWGQGTTVTVSS
VL: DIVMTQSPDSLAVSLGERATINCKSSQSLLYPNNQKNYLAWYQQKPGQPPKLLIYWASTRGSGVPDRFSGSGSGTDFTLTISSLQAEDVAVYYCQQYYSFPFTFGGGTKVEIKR
notes: as for B2
On to B3, for which, in experiment [3], the “IC50 of reducing Gal9-induced CD4+ T cell apoptosis” value stood at 1.9 nM. Moreover, in experiment [8], the “IC50 (read off the curve), inhibition of Gal9-induced TIM-3 dimerization” value is about 20 nM and the “IC50, inhibition of Gal9-induced TIM-3 dimerization (RLU, enzyme fragment complementation)” value came out at 25 nM. Moreover, in experiment [9], the “IC50 (read off the curve), inhibition of Gal9-induced CD4+ T cell apoptosis” value was about 6 nM and the “IC50, inhibition of Gal9-induced CD4+ T cell apoptosis (% AnnexinV+PI+ cells)” value came out at 6.1 nM. Besides, in experiment [10], the “IC50, inhibition of Gal9-induced CD8+ T cell apoptosis (% AnnexinV+PI+ cells)” value is 1.34 nM.
